According to the supplement of paper PMC9170038:

Test system: K4 kissing-loop RNA reporter
Experiment: apparent KD of K4 kissing-loop reporter; higher = weaker reporter binding
Settings: Eterna round: R107
Protocol: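 RNA-MaP round R107: designed RNA switches with theophylline, tryptophan, arginine or FMN aptamers are transcribed on-chip within common flanks. They are titrated with a labelled K4 kissing-loop RNA reporter in RNA-MaP buffer (100 mM Tris pH 7.5, 80 mM KCl, 4 mM MgCl2), without ligand or with the indicated ligand. Median apparent KD per design.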

[1] = input ligand: theophylline 20 uM
[2] = input ligand: tryptophan 2.4 mM
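Note: bound reporter read as fluorescence of individual clusters on recovered sequencing chips by microscopy, with normalized cluster intensities fitted with a binding model.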

Sequence	apparent KD of K4 kissing-loop reporter (input ligand: FMN 200 uM)	apparent KD of K4 kissing-loop reporter (input ligand: arginine 13.2 mM)	apparent KD of K4 kissing-loop reporter (input ligand: none)	apparent KD of K4 kissing-loop reporter [1]	apparent KD of K4 kissing-loop reporter [2]
GGAUAGGACAGAGGAUAUGGUAGUGAUGUUACCAAACUGGUUACUCUUGUCAGAAAACUGGCAUCUCUAGAAGGCUGUCCUAUCG [KL-XFMN-B9]	389 nM	156 nM	149 nM	144 nM	168 nM
GGAUAGGACAGAGGAUAUGGAGCUAGGCAAGAAUAACUUGUCUAGCAAUCCAUGAGGAGUGAUGUUCCAGAAGGCUGUCCUAUCG [FmnBX 2 - #SwitchBubble #StraticStem #DoubleMagnetSystem]	825 nM	156 nM	155 nM	163 nM	116 nM
UGAUACCAGACGGCCGCCACUCCUGCAGUCAAAGACUGCUAGGAAAUAUUCGUCCAGUGAUGUUGGAGGACCGGGUCUGGUAUCU [TrypBX 10 #SwitchBubble #Palindromic #StaticStem]	791 nM	600 nM	740 nM	633 nM	894 nM
AGGUUUUGAUUAGGAUAUGCAUUGACGAUGAGAAUAUAGUGAUGUUAUAUACUACGAAUUAGUAAAGUAGAAGGGAUUGAGGUUU [SSFMNB.aA]	353 nM	275 nM	324 nM	368 nM	241 nM
AAAUAGAUCAGUCAACCAGUGAUGUUGGAAGGAGCGUGCGAAAGCACAGGUAGGUCGCCAGAAUAAAAUUGGCUGAUCAAAAUAA	328 nM	338 nM	333 nM	408 nM	185 nM
GAGGUUUACGUAGGAUAUCGGUAAUGAGUAGAUGGAGUGAUGUUCCGAAAUUGAAUAGGAGAUGGGCGAGAAGGGCGGAUUAAGC [whbob_SS_FMNB__2th204]	82.1 nM	91.6 nM	77.4 nM	110 nM	58.1 nM
UGAUAGCCAGUGAUGUUGGCAUGUACUGAAGGAGCGCGUGGAAACGCAGGUAGGUCGCAGUUCCUUGCCAAUUGAUCGAAAGAUC [#09 K4 Arginine A Exclusion]	249 nM	288 nM	320 nM	395 nM	239 nM
GGCCUGGUCGCCUAGUGAUUGUCGGUAGGACGAGGACCGGUACGGCCGCCACUCGGCUUACCCAGUGAUGUUGGGUAUCCGUGGC [Onercelama]	194 nM	136 nM	177 nM	176 nM	235 nM
CCCUCACGAGUGAUGUUCGUAGGGUACAGUCAGGAUAUCAUGCGGUUGAGAAGGGACAGAGAGGGCGGCCACGGGUUGCUCAUCU [Tiongequ]	187 nM	288 nM	372 nM	435 nM	390 nM
AAGGGCCGGGCGGCCGCCACUGGUCGUGUACACGUACUAACCAGUGAUGUUGGUAUAGUACGCGACAGGACCGGGCCCGGCCCAA [Exclusion - Tryptophan B (Freestyle 30)]	405 nM	359 nM	445 nM	297 nM	236 nM
AUGCUUUUAAUAACACUAUAUACAACUGAAGGAGCGACAAUAAAGUCAGGUAGGUCGCAGAAUAAAUGAGUGAUGUUCAUUUUUA [JR_ExcArginiA_Sub009]	82.2 nM	130 nM	92.2 nM	119 nM	63.9 nM
CCGCCAUCAUCAGAUACCAGGCUGAUGGCGGUAACCGCCAAGCGAGUGAUGUUCGCAUCAGUCCCUUGGCAGCUGAUGAAGACUG [#15 K4 Theophylline B Same State]	194 nM	94.3 nM	146 nM	155 nM	95.2 nM
AAUACUAUCAGAAGGAGCGUGGAAUAUUCAUCUGUAUCUAAUACGAGUGAUGUUCGUAAUUCACAGGUAGGUCGCUGAUUAAUAA [whbob_Ex_Arginine_B_2th157]	274 nM	275 nM	253 nM	266 nM	231 nM
GUGCAAAGCACCGGCACGAGCAGCCUAAAGGAGGAUAUGACGAAAGUCAGAAGGCCUAGUGAUGUUAGGUCUUGCUUGAGUCGAA [Omei KL FMN A Exc B v2]	156 nM	214 nM	301 nM	323 nM	320 nM
AAAAUAACCCAGUGAUGUUGGUAACCAGAUACCAGCGACGAAAGUCGCCCUUGGCAGCUGUGGACGUACAAAAUAAGUACGUCCU	686 nM	765 nM	859 nM	583 nM	649 nM
UGUGAUGUGUAGUGUUAUGUUUUGAGGGAUACCAGAGUCUUUUUAUUCCCUUGGCAGCUUGAGUGAUGUUUGAUGCUGUUGUUGU [dvccmullin]	463 nM	342 nM	412 nM	431 nM	339 nM
GCUAUGGUAGGAAGGAGCGCUUAUUUAUUAAUAAGAGUGAUGUUCGAUAAUAGAUAUUUAUAGCAGGUAGGUCGCCUACUAUAGC [Arginine B K4 11]	290 nM	278 nM	293 nM	321 nM	165 nM
GGUUCCUCAGUGAUGUUGAGGUGACCUCGGCAGGAUAUAGGCAUUACUAGAAGGGCCAAAAGAACCCUGUCCAGCGACACAGGGU [Inatinar]	157 nM	304 nM	310 nM	259 nM	265 nM
GGGAGUAGUGCGGCCGCCACUGUGAAAGAAGAAGAAUAUAGUGAUGUUAUAUAGGAAUAAAAGAAUAGGACCGGGCAUUAGAUUU [SSTRyptB.R]	334 nM	231 nM	134 nM	113 nM	139 nM
AUUAAUAACAGAGGAUAUGCAUUUUUAUUAUUUUUAAAUAUUAAAUGCAGUGAUGUUGCAUAUUAAGCAGAAGGCUGAUUUAUUU [JR_SSFMNB_Sub012]	117 nM	271 nM	211 nM	279 nM	147 nM
GCUAGUGCCCGCUCGAAAGAGCGUGUGUGUAAGGAUAUCUAGUAAUAGAGAAGGUACGGAGUGAUGUUCCCACACGGGCACUAGC	705 nM	600 nM	800 nM	779 nM	1060 nM
GGUGCGGGCUCGGCCGCCACUCCCGCGGGUCGUAAGGUCCGCUACUGAGUGAUGUUCGGUUGGAGGAGGACCGGGAGCCCGUGCC [#2 Exclusion - Tryptophan B Attempt #19 (HarryS)]	115 nM	113 nM	106 nM	85.3 nM	106 nM

Sequence	apparent KD of K4 kissing-loop reporter (input ligand: FMN 200 uM)	apparent KD of K4 kissing-loop reporter (input ligand: arginine 13.2 mM)	apparent KD of K4 kissing-loop reporter (input ligand: none)	apparent KD of K4 kissing-loop reporter [1]	apparent KD of K4 kissing-loop reporter [2]
AACUGUCAAGGACAACAUUACUGGAGUGAUACCAGCAUCGAAAGAUGCCCUUGGCAGCACUAACUUGCAGUGAUGUUGCAAGUAA [BrourdMod 6 - Jieux - Exclusion - Theophylline A]	208 nM	174 nM	196 nM	192 nM	191 nM
AAAGGUUGAAGUGAUACCAGACUAGCAGUGAUGUUGCGCCAAAGUGAGUGAUGUUCACCAGUCCCUUGGCAGCACAUGCCUAAAG [Same State Theophylline B GF 13]	985 nM	890 nM	1210 nM	1310 nM	811 nM
AAUAAAAUCACGGCCGCCACUGAUGUUAAUAUUAGCAGUGAUGUUGCUAUGUCGUUUUUAUUUAACAGGACCGGGUGAAUAUUUA [JR_ExcTryptoB_Sub013]	183 nM	182 nM	171 nM	188 nM	154 nM
UCUGGAGCAUAUGAUACCAGCAGUGAGAGACAGGAAGUAUAGUGAUGUUAUAUGAGAGAAUGCCCUUGGCAGCGUGUGCAGUGGC [SSTheophylB.P]	104 nM	96.5 nM	65 nM	94.9 nM	59.7 nM
CAAUGAGUAUAAGAUGAUAUCAUCACAGAAGGAGCGAGUGAUAACUCAGGUAGGUCGCUGAAUUUGUCGAGUGAUGUUCGAUAGA [whbob_SS_Arginine_A_sa119]	209 nM	173 nM	204 nM	188 nM	182 nM
CAGCGGAGUGAUGUUCUGCUUACUCCGGAUACCAGCUUCGCCAGAGGCCCUUGGCAGCCGGGCGGCUCAGUGAUGUUGGGUUGCU [Same State Theophylline A GF 16]	934 nM	532 nM	870 nM	979 nM	765 nM
UCAGUUCACGGGCGCCGCAAACCGCAGGAUACCAGUCACAUCGCUGACCCUUGGCAGCCUAUGGACUAGUGAUGUUAGUCCAGGA [theeternabot_sameState_KL_Theo_A_37]	98.5 nM	95.2 nM	128 nM	117 nM	115 nM
AGGGUAAGGCGUUAACAUGACACCUGGGAAGGAGCGCAGUACACUGCAGGUAGGUCGCCCAGUGAUGUUGGGCGUAUGUAUUAGU [Legexeso]	140 nM	143 nM	153 nM	200 nM	119 nM
CCUAUCUCAUACGAUACCAGUCUAUUAAAACGAGUGAUGUUCGAAAAUUUGCCAUAUAAUGACCCUUGGCAGCGUAUGGGAUAGG [Ex Theophylline B K4 8]	201 nM	185 nM	203 nM	211 nM	176 nM
UUUUAUUAAUACUUCUAGUGAUGUUAGAUACGAGGACCGGUACGGCCGCCACUCGCUUAUUGGUUUAUAUAUUUUUUAUUCUUUA [JR_SSTryptoA_Sub013]	276 nM	349 nM	316 nM	353 nM	263 nM
AAGUGAUGUUGUAGUGAUGUUGUGAUGUUGCAGGAUAUAUAGUGAUGUAGAAGGGUAUGUACUGAUUUUUUUUUUGAGUGAUGUU [awaqmullin]	99.2 nM	43 nM	77.3 nM	58.8 nM	79.9 nM
AGGUUUUGAUUAGGAUAUGCACUGAGGACGAGAAUAUAGUGAUGUUAUAUAAUAGGAAUUAGUAGAGUAGAAGGGAUUGAGGUUU [SSFMNB.V]	244 nM	153 nM	183 nM	194 nM	161 nM
AACGUUUUGUGAAGGAGCGCGAUAAGCAGUGAUGUUGCUUACUAUCAAUUUAUAUUUUACACGCAGGUAGGUCGCACAAUACGUA [JR_SSArginiB_Sub018]	159 nM	135 nM	160 nM	148 nM	163 nM
UAUAUAGUGACGGCCGCCACUAUUGUGAUGUUGUUGUUAGAGUGAUGUUUUGUUGUUUGAUUUUGUAGGACCGGGUUAUAUGUUA [ffdfzmullin]	780 nM	500 nM	615 nM	567 nM	562 nM
CGAUACGGAAAUACGUGUCUCUAUUCAGAAGGAGCGUGUUUGUACACAGGUAGGUCGCUGAAAUUUAAACUAGUGAUGUUAGACU [JR_SSArginiA_Sub003]	1160 nM	816 nM	1160 nM	895 nM	929 nM
GGACGAGUGAUGUUCGUUAUUAUGCAUUCAGAGGAUAUAGGAUUAGCUAGAAGGCUGAAUCAAUCUUCGAGUGAUGUUCGAGGAU [Same State FMN A GF 10]	146 nM	146 nM	154 nM	151 nM	142 nM
GCUAUGGUAGGAAGGAGCGCGGACGAUAUUUAUCGAGUGAUGUUCGAUUCAUUAAUUUGAACGCAGGUAGGUCGCCUACUAUAGC [Arginine B K4 29]	138 nM	148 nM	160 nM	134 nM	161 nM
AGACUUCACCGAAGGAGCGACGUAGCCUAGUGAUGUUAGGCAAGAGAGAAAUCUCUUAAACGUCAGGUAGGUCGCGGUGAAGUCA [Omei KL Arginine B SS C v3]	262 nM	163 nM	202 nM	227 nM	190 nM
GCGCGCGGCGGAGGAUAUAGCCGGUGGUCCGGGAAAGUGAGUGAUGUUCGCGGAGUUCUGGAUAUGUUAGAAGGCCGCCGCGCGC [qwertyuiopasdfghjklzxcvbnm]	1010 nM	857 nM	1060 nM	700 nM	718 nM
GCAACAUUGGGAGGAUAUCAUUCUGAGUGAUGUUCAGGGUUCAGCUAACGAAAGUUAGUUGUACCAUGAGAAGGCCUAAUGUUGC [Omei KL FMN B SS A v2]	287 nM	769 nM	964 nM	867 nM	961 nM
AUCGAGCCCAUCGGUGAGUCAUUAGUUGAUACCAGAGCUAUUGGCCUCCCUUGGCAGCAAGUAAACCUGUUUAGUGAUGUUAAAC [theeternabot_exclusion_KL_Theo_A_15]	178 nM	150 nM	168 nM	162 nM	157 nM
